Literature values in publication PMC3905167.

How the values were obtained:
Assay in all cases: given as Ka
[1] = biological target: FcγRIIa (R131) (Homo sapiens) (UniProt P12318)
[2] = biological target: FcγRIIIa (F158) (Homo sapiens) (UniProt P08637)
FcγRI (Homo sapiens) = FcγRI (Homo sapiens) (UniProt P12314)
[3] = biological target: FcγRIIa (H131) (Homo sapiens) (UniProt P12318)
[4] = biological target: FcγRIIIa (V158) (Homo sapiens) (UniProt P08637)
Chain of FcγRIIIa (V158) (Homo sapiens) (P08637 17-254): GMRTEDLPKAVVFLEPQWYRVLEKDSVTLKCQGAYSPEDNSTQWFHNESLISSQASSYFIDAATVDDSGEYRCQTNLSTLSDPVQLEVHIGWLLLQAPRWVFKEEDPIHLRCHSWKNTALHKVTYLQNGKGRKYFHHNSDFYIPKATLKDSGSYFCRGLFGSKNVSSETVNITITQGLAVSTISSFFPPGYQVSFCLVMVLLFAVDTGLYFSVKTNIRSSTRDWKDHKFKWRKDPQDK

Chain of IgG4 (P01861 whole entry): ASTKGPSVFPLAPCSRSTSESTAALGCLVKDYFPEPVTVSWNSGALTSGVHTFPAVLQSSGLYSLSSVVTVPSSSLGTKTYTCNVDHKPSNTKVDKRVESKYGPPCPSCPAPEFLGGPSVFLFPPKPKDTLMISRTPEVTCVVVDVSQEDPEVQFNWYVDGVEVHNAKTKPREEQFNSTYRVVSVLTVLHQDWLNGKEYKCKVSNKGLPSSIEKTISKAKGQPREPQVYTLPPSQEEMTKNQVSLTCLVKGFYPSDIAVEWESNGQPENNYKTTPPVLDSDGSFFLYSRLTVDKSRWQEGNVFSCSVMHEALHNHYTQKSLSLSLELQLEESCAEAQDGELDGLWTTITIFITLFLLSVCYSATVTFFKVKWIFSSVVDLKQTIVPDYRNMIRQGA
Chain of FcγRIIIa (F158) (Homo sapiens) (P08637 17-254): as the sequence (P08637 17-254) above
Chain of FcγRIIa (R131) (Homo sapiens) (P12318 34-317): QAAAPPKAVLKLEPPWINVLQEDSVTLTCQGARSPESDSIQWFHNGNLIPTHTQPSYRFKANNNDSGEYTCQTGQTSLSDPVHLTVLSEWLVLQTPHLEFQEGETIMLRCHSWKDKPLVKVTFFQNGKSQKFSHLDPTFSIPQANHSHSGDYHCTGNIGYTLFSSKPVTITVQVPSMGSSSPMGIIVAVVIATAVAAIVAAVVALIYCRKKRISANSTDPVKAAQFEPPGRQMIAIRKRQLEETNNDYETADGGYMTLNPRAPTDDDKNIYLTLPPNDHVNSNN
Chain of FcγRIIa (H131) (Homo sapiens) (P12318 34-317): as above
Chain of FcγRI (Homo sapiens) (P12314 16-374): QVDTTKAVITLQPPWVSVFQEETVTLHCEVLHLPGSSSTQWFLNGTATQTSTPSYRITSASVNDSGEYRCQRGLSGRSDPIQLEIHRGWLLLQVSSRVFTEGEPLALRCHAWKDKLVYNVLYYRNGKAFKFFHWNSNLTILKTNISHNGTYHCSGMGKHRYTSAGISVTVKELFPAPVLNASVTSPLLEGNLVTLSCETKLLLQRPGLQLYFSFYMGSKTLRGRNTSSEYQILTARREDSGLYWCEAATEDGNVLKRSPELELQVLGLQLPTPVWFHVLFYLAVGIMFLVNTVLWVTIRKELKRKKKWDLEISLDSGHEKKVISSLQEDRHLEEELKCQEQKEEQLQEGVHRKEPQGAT

| Kd [1] [nM] | Kd [2] [nM] | Kd (FcγRI (Homo sapiens)) [nM] | Kd [3] [µM] | Kd [4] [nM] | Substance |
| --- | --- | --- | --- | --- | --- |
| 286 | 855 | 15.4 | 0.192 | 500 | IgG1 (from UniProt P01857) |
| 4760 | 5000 | 29.4 | 5.88 | 4000 | IgG4 (from UniProt P01861) |
